Laboratory results as given in a protein production outcome set (Wang et al. 2014).

Assay: label from the status in PepcDB records

Row | Sequence | protein production
1 | MKGLERESHFTLNENAMFFECAYSCDNALFLQLDDRSFFITDSRYTQEAKESVQPKNGVLAEVVESSDLVQSAIDLIVKSSVKKLFFDPNQVNLQTYKRLNSALGDKVALEGVPSYHRQKRIIKNEHEIQLLKKSQALNVEAFENFAEYVKKIFDEKESLSERYLQHKVKDFLTREGVYDLSFEPILALNANASKPHALPSAKDFLKAEHSILLDMGIKYERYCSDRTRTAFFDPKDFVFKREQSFKDKERQKIYDIVKEAQEKAISGIRAGMTGKEADSLARGVISDYGYGQYFTHSTGHGIGLDIHELPYISSRSETILEEGMVFSVEPGIYIPGFFGVRIEDLVVIKNSRSELL | failed
2 | MSADLKQSRLADWRQRALAFEREVGKAVIGLERPIRHILIAVFARGHVMLEGDVGVGKTTLLRAVARCLGGAYERVEGTIDLMPNDLVYHTYINELGKPQVEPGPVLKHGEELSVFFFNEVNRARPQVHSLLLRIMAEHAVSAFNREHFFPYLQVFADRNRVEKEETFEIPSAARDRFMMELHVETPADPALRRALMFDPKFHDVDRLLDTLTPGILPYREIPQIAPVIQQSVTASETLQQYALDLWEATRRPADYGVKLEGIDMDRLILAGASARGVSMMMRAARVAAWLDGRDYLVPEDIHDVFRETIGHRVFFNPVYELRRTALIDELLHAIRQKVAAPLEHHHHHH | not failed
3 | MNPMAIISITAFVVALVSGVYIFVKNPESRFNRALLLFSALIAYLSLTDFGLYISESYMMADFWVRMGFLWPIVVPVILHMVLLFTGRRPTMPLLAVIYAPAVVIAALELTTDLITAGPTMTSWGWTFSAAENSLPYQISNIWGFIIASVAIILVALHWRSSRGSDRTQAHYLLTGLILPVLAGVLTDLVLPAAGMAVPSLTDPSAALGVSIIAYGVMRFRLPILSPLNAAMDIVRNMNTFLIITDLGLNIHYVNPATERLTGRRAAEFSGRKVTEVLKFDELSTGSIMESRLRGKDEWIPVIVSAGHVHGSGGEHLGLLFTGSDMRPILEMEEKLRRREDRLVLLTEHMADGLGEFDRDFNFRYLSPSVKKITGYDHEMLTGMSALDFMDYLHPDDTEEVKKLILTRGEGHRATFRIRRPDGNYRWVEYVDRPIRTDGDIEGYVFGLRDIHEHKLAEEALIVSKEKFRELFRNMRSGIIAVESDGKGFRVKSMNPAAERMEGVSCAAIQGMDLQEALPEIWNSPIRRALQEIRETGEAIHCPEVECGEGWFDVHLHQLSTGEVVIICTDITLRKQYEDELRASLREKEALLREVHHRVKNNFQVISSLINLQLDDAEDPAPLRDLQSRIQSMALVHELLYESEDLTSIDMGRYIERLTSSIVNSHHNGEIEVEVAVGDITLPLETAIPLGLIINELVTNSFKHAFTSGGMISVELEEHGGEFTLTITDNGVGLPPDFIIEDSDSLGLRLVAGLVDQIDGTLEVSGEDGTRFRLTFGVVPYRRRV | failed
4 | MRSTKIVCTVGPRTDSYEMIEKMIDLGVNVFRINTSHGDWNEQEQKILKIKDLREKKKKPVAILIDLAGPKIRTGYLEKEFVELKEGQIFTLTTKEILGNEHIVSVNLSSLPKDVKKGDTILLSDGEIVLEVIETTDTEVKTVVKVGGKITHRRGVNVPTADLSVESITDRDREFIKLGTLHDVEFFALSFVRKPEDVLKAKEEIRKHGKEIPVISKIETKKALERLEEIIKVSDGIMVARGDLGVEIPIEEVPIVQKEIIKLSKYYSKPVIVATQILESMIENPFPTRAEVTDIANAIFDGADALLLTAETAVGKHPLEAIKVLSKVAKEAEKKLEFFRTIEYDTSDISEAISHACWQLSESLNAKLIITPTISGSTAVRVSKYNVSQPIVALTPEEKTYYRLSLVRKVIPVLAEKCSQELEFIEKGLKKVEEMGLAEKGDLVVLTSGVPGKVGTTNTIRVLKVD | not failed
5 | MSSTLRFHVLGRGAALPRAVAPYFVLRTDNWDDFGHRVQFHLILIVSGAPEKRIGSLKVLQRTSDKGEAMMVATDTELPSKFVELDDTFVSLGQDDDFYKKLHEALGDRAGEVLDALRDIAWRPAFASDFEPTPAFRNAMMRENGAQRARRFGRAWALGEQITERPAFDYVGTIEGADIKVEGEFDFSATDPVPGRIVGLIGRNAVGKTRYLASLGSDLAQISRRSAEALEAREARFPGGRPLFTRIIAISYSAFDRFKRPPMDSSSSYVYCGIRNDRGGLSRSALIDRYRLNQVRIRERGEQRSWMRHMKTILGDQGAQLTASLEEEIRSDSTDDSALSSLSSGQSILAHFVTALLAWIQPNSLVLFDEPETHLHPNAVASLFLVLSQVLQEFDSYAVIATHSPVVIQEIPAKRVLVFRREGNVTIAEPLLLESFGESVTELTRHVFETGEVESLYKRTLRELAAEDTVEDVLARFELGLSLSAQAYLLAQYSKKAGGRTLEHHHHHH | failed
6 | MSNANPDTTAAEAHRRRTFAVIAHPDAGKSTLTEALALHAHIISEAGATHGKAGRKATVSDWMEMEKDRGISIASSALQFEYAPEGHAGEPFMINLVDTPGHADFSEDTYRVLMAVDAAVMLIDAAKGLEPQTLQLFRVCKARGLPIITVINKWDRVGRTPLELVDEIVKEIELQPTPLFWPVGEAGDFRGLARINNDGEVEEYIHFTRTAGGSTIAPEDFYTPEEAIEREGDVWENATEEAELLAADGAVHDQELFLNCTTSPLIFASAMLNFGVHQILDTLCQLAPSPAGRDADPKALEAATSAMDDHRDTTDDFSGVVFKVQAGMDKNHRDTLAFMRVVSGEFDRGMQVTHSQSGRSFSTKYALTVFGRTRSTVETAFPGDIVGLVNAGALAPGDTIFEGRKIQYPPMPKFAPEHFRILRAKSLGKYKQFRKALEQLDSEGVVQILKNDLRGDANPVMAAVGPMQFEVMQARMEVEYNVETVADPIPYSVARRTTAETAPELAKQRGVEIFTRTDGELIALFSDKWRLSFIEKEHPDFVLESLVAE | failed
7 | MMMTRSWAAGGSAVLLALLLGGTITSAHAQSADLVLCDRIAADPADPDKPADVKGVTEIAPGDVSTAIKYCRVASAGSRRAMYGLGRAYAAGGQTAEALAAYRKAADKGSSAAMVELGVAYATGVGLPKDDAKARQLLERAAAAGNPRGISNLAALGGGASSDPVKTRALLAKGAESNAEAQYQLGMMMADGIGGPKDDAGARALFEKAAGQGHPGALMQMGAFAQAGRGGPKDSDAAKAYYEKAAALGNADAKAALKRSDCPYVLKDKRGNMVTNLCF | failed
8 | MNQQLLAKTFVELADNLVADFDLIDFLRLLTDRCVGMLDASAAGVLLADRNGELRVMAASDEQVRLLELFQLQNDEGPCLDCFRTGAPVTVPDLSAVTARWPRFAVQARRSGFGAVQALPMRLRDEVVGALNLFRATPGPFDPAATPLAQALADVATISLLQQRTAHRSTVLNEQLQTALN | not failed
9 | MSKLDLHQMTTQDLVALFAKVTVEQDDALLGNQISRFNRLFGVMAEIADELKARDGDQRTALLSLFEYPNMQVRLQAAKLTLAVAPVKAREQLEAIVSSKWFPQAGDAGMCLDLLDDGTFKPK | not failed
10 | MKKAKSRIAILGTGGTIAGFIDSTIATTGYAAGAIDIDVLIKAVPQIRDLADISWEQIANIDSSNMCDEIWLRLAKKIAKLFAEGIDGVVITHGTDTMEETAYFLNLTIKSDKPVVLVGAMRPSTAISADGPKNLYNAVALVVNKEAKNKGVMVAINDKILSARGVVKTHSLNVDAFSSPDFGDLGYIVDGKVFFYNNVIKAHTKNAPFDVSKLTSLPKVDILYSYSNDGSGVAAKALFEHGTKGIVVAGSGAGSIHKNQKDVLKELLKKGLKVVVSSRVVAGCVAVSDSDEKLGFISAEDLNPQKARVLLMLALTKTSDPKKIQEYFLKY | not failed
11 | MDKALTNHVIILSFDCLSALDFPILQKLPHFQSLIKKGTVVEKVEPIYPSVTYPSHSTIVTGNYPNKHGVVSNTLLQPGRESPDWHWYRKSIKGTTLYDEARKANLTTAALLWPVTGRANIDYNLPEIFPNRPWQNQVLVSLFSGSPLYQLDLNRRFGHIRNGLSQPELDDFVLASAVHTIQTKKPNIMFVHFTDLDTQRHYHGFESNETIAAIQRHDERLGKIIQALKESDLYEESTIIALGDHSALSENKSIQLNVLFHQRGLISLNKKRKLVDWKAYCQSCDGSAYVYVKDKNDTDTIREVQLLLEELLQNKQNGIEFILHDEAAKDCGADGNCLFMLEAREGYYFTENYTGDFIKEITEKDVTLSKKYTFGTHGYSPTKPNYETIFIAAGKGIKSGVTVPYMRLIDEGPTIARLLGLHLGETDGAIVEDLLQLLEHHHHHH | not failed
12 | MNKYLSFIFASVLTLTGVQLSKASNPSDSLAIVSAKWERTSSLQGIQLKQASIEGLFGGKQSISILTIGRAEGYTAFIATTDSLTTTSQLAEQSRSSAAINGSYFSIKEGFSTCYLRKNEAVIDTTTTEERHLRVNGAVHMVDNNIRIIPWNDENEKKGFPLDGDILASGPLLMQDGKTCDFTTIDREFSETRHPRSAIALTKEGDIMLVAVDGRAEGHADGMSIAELAYLLRILKAHCALNLDGGGSTTLWVNGQVVNHPSDNKKFDNKGERKVHNIIAVRRLTNP | failed
13 | MNRKMFGELISEAIAMFIIIALGESAAAMYILYDPSPYQNAYWGLCICWGLAVTIAIYVTASVSGTHANPAVTLALALYRGFPWKKVLPYWAAQVIGAFIGAMIVYQLYSPVIDYYNHIHQLTRDAGGAAGVFFTSTGMAITPIHALGDEIILTAFLVFGIFAITERFNEAAPTANSGALVIGLLVATIGACMGYLEGWAINPARDLGPRLFAFLAGWGESAFPGKDHYWWIPIIGPLIGGVMGATAFQCLIYPFLPARVQAKQQAAILLHRKHP | failed
14 | MHSGLNPQDIAFLKTIIAFFFLSVFLFKVPVSQKIAYISSTPSKLSVFTQIAICAFLGIFSLFFFETIAYNHGAAANVVVVLMASAAISALFFGRLILKESIYINSLIGTLLAVAGISIISWKGENSLLMLINASIAGTGYGLFSVLVKKFKLNGGLFLTKYLLLFGSVYLAVPFLVNLHAIHFNIDIVLGLIGLAVLPTILGFFCTTKALSYMSAAKVQVTELSEPIFAALMAWVFIHEQPTLSFLYGAIFIISGIFVMNRAPKSN | failed
15 | MKKSLIAFILIFMLVLSGCGMKDNDKQGSNDNGSSKSPYHRIVSLMPSNTEILYELGLGKYIVGVSTVDDYPKDVKKGKKQFDALNLNKEELLKAKPDLILAHESQKATANKVLSSLEKQGIKVVYVKDAQSIDETYNTFKQIGKLTHHDKQAEQLVEETKDNIDKVIDSIPAHHKKSKVFIEVSSKPEIYTAGKHTFFNDMLEKLEAQNVYSDINGWNPVTKESIIKKNPDILISTEAKTRSDYMDIIKKRGGFNKINAVKNTRIEVVNGDEVSRPGPRIDEGLKELRDAIYRK | failed
16 | MLSLLISVKKLFSSFLGILKKEDTRALFFLLATTLLSGTIFYSTVEKLSPLDSLYLSFMTLTTIGYGDVHPVTDLGKIFTMIYATVGLGIMAMFISVVAKSYLYSKQSHHHHHHKNKEHSAEKSSEK | failed
17 | IKERVKMEVIGLEIPLISGNEDYTLAELISTYPLEDKDVIVIAETVVSKIEKNVILKNEITPSNEAMELSKKLGKEPEVVQVILDESNEIVKLGPNFIITETKHGFVCANSGVDESNTSKGIKPLPKNPDKSAEEIRMGIEKITGKKVGVIINDSMGRPFRKGSCGIAIGVSGVCGLWDRKGEKDLFGRELKTTEVGIADELAATASAVMGQSNEGIPLVIIRNAPVPFTNGTGKELIRKKEEDVFR | failed
18 | MKSRTRWLTSEELVTLFEAMRQAPGFSVENGLSIKLLLLLAVRKGELIGARWSEFDLDKAVWYLPAERTKTESAIDIPLPPIAVEWLRELQRLAGVSKWVLPARKMQDRMIPHIAESTLSVALAKIKHGLEPFTIHDLRRTARTHFEALGVAPHIAERCLNHKIKGIEGIYNRHDYFEERKAALEAWAGLLLQIERGEADKVVPIRRAVATKQLEHHHHHH | failed
